B1: anti-CD38 scFv antibody RP02 (scFv, V domains shown)
VH: PAQLVESGPGLVKPSGTLSLTCAVSGGSISSSNWWSWVRQPPGKGLEWIGEIYHSGSTNYNPSLKSRVTISVDKSKNQFSLKLSSVTAADTAVYYCAREDYYYYMDVWGKGTTVTVQS
VL: QSVLTQPPSVSAAPGQKVTISCSGSSSNIGNNYVSWYQQLPGTAPKLLIYDNNKRPSGIPDRFSGSKSGTSATLGITGLQTGDEADYYCGTWDSSLSAGVFGGGTKLTVL
B2: high-affinity anti-CD38 antibody 028 (scFv) (scFv, V domains shown)
VH: QVQLVQSGAEVKKPGSSVKVSCKAFGGTFSSYAISWVRQAPGQGLEWMGRIIRFLGIANYAQKFQGRVTLIADKSTNTAYMELSSLRSEDTAVYYCAGEPGERDPDAVDIWGQGTMVTVSS
VL: DIQMTQSPSSLSASVGDRVTITCRASQGIRSWLAWYQQKPEKAPKSLIYAASSLQSGVPSRFSGSGSGTDFTLTISSLQPEDFATYYCQQYNSYPLTFGGGTKVEIK

Biological target: Recombinant human CD38 extracellular domain (amino acids 43–300, hCD38-ECD) (human, UniProt P28907 43-300, biotin (EZ-Link NHS-PEG4-biotin) for panning and for capture on the SA biosensor; not said for the cross-linking)
Assay: BLI

Binder	koff [s⁻¹]
B1	0.0034
B2	0.00012

— paper PMC7967050 (2021)
